Data: the supplement of paper PMC5998384

How the values were obtained:
HeLa Kyoto [1] = assay: solubility in G1/S (NP-40 vs SDS abundance) (log2 ratio); higher = more soluble; conditions: cell cycle stage: G1/S
HeLa Kyoto [2] = assay: melting temperature (median over replicates), in situ; higher = more thermally stable
HeLa Kyoto [3] = assay: solubility change mitosis vs G1/S (difference of NP-40 vs SDS log2 ratios) (log2 ratio difference); higher = more soluble in mitosis
HeLa Kyoto [4] = assay: thermal stability score vs G1/S (z-score of summed log2 fold changes over temperatures); higher = more thermally stable than in G1/S
[5] = cell cycle stage: early G1 (4.5 h after nocodazole release)
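Wherever melting temperature (median over replicates), in situ is given: HeLa Kyoto cells synchronized by double thymidine or nocodazole block, proteins quantified by TMT10plex mass spectrometry, three independent biological replicates.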
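Wherever solubility change mitosis vs G1/S (difference of NP-40 vs SDS log2 ratios) is given: synchronized HeLa Kyoto cells (double thymidine block for G1/S, nocodazole release for mitosis), protein amounts in NP-40 versus SDS lysates quantified by mass spectrometry, three biological replicates.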
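Wherever solubility in G1/S (NP-40 vs SDS abundance) is given: HeLa Kyoto cells arrested at G1/S by double thymidine block, proteins quantified by TMT10plex mass spectrometry in mild NP-40 versus SDS extracts, three biological replicates.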
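Wherever thermal stability score vs G1/S (z-score of summed log2 fold changes over temperatures) is given: synchronized HeLa Kyoto cells, proteins quantified by TMT10plex mass spectrometry, three biological replicates, mitosis taken 0.5 h after nocodazole release, G1/S directly after double thymidine block.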

Sequence of CIAPIN1 (chain, as listed by the source): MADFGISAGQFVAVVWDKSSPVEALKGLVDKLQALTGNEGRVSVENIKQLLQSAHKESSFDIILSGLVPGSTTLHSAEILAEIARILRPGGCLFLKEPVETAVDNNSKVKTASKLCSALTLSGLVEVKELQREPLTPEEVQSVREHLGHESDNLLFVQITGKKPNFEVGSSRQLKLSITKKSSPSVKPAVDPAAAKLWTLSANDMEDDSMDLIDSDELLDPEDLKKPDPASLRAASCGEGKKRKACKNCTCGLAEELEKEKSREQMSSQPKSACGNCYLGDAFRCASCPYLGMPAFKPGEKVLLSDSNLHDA
Sequence of LARS (chain, as listed by the source): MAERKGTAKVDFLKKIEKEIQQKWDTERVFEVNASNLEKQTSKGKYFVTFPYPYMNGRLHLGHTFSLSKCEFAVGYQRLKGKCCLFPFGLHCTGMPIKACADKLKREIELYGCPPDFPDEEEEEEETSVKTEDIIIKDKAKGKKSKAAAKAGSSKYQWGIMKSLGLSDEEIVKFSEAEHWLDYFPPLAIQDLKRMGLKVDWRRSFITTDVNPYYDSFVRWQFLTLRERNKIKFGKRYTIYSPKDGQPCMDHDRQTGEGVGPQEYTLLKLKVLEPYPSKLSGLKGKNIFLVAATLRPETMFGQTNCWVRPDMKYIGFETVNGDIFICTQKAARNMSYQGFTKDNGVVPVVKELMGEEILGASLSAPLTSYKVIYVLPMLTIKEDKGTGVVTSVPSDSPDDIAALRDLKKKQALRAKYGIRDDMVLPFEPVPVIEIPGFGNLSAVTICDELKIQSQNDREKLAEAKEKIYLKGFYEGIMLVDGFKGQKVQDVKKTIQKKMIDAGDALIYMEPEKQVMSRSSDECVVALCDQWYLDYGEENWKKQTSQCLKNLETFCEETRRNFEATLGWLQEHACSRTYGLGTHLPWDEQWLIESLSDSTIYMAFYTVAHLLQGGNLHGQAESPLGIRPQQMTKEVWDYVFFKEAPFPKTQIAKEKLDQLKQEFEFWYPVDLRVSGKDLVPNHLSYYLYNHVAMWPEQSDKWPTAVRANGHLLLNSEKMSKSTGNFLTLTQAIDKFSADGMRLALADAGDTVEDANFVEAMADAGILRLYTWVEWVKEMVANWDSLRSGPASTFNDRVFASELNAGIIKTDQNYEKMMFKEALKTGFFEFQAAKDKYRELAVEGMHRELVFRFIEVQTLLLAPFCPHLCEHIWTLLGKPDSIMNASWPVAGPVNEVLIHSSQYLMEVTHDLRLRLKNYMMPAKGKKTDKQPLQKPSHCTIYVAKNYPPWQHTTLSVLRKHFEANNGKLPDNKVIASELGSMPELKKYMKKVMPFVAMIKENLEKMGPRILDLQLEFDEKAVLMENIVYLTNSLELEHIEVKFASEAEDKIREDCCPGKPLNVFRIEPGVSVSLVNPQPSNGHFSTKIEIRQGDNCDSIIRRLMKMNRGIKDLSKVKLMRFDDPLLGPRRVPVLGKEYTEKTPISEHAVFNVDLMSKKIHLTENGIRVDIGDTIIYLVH
Sequence of HDGF (chain, as listed by the source): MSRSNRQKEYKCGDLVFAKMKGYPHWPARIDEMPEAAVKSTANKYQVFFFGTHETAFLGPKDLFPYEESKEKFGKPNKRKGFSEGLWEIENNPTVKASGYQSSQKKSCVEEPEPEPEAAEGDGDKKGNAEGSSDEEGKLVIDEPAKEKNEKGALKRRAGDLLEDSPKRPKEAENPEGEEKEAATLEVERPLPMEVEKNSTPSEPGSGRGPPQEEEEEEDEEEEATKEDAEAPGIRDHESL
Sequence of IRF2BP2 (chain, as listed by the source): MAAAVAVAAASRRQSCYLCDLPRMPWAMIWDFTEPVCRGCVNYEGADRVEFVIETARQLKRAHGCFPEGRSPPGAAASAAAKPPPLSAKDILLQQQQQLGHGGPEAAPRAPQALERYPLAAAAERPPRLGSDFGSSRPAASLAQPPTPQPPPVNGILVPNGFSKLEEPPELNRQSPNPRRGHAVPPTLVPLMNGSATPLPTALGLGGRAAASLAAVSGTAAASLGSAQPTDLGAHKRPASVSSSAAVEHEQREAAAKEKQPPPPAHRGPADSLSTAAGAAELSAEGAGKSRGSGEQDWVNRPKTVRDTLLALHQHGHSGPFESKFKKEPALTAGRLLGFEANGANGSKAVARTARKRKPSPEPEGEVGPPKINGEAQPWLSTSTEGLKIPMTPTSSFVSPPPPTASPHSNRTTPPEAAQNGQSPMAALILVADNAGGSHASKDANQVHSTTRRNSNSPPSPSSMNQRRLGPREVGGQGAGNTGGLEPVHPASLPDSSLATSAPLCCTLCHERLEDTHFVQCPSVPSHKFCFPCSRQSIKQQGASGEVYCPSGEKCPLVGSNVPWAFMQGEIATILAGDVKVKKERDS
Sequence of LSM3 (chain, as listed by the source): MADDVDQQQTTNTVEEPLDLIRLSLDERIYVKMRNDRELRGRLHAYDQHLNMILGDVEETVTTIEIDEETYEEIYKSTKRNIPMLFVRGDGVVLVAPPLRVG
Sequence of FXR1 (chain, as listed by the source): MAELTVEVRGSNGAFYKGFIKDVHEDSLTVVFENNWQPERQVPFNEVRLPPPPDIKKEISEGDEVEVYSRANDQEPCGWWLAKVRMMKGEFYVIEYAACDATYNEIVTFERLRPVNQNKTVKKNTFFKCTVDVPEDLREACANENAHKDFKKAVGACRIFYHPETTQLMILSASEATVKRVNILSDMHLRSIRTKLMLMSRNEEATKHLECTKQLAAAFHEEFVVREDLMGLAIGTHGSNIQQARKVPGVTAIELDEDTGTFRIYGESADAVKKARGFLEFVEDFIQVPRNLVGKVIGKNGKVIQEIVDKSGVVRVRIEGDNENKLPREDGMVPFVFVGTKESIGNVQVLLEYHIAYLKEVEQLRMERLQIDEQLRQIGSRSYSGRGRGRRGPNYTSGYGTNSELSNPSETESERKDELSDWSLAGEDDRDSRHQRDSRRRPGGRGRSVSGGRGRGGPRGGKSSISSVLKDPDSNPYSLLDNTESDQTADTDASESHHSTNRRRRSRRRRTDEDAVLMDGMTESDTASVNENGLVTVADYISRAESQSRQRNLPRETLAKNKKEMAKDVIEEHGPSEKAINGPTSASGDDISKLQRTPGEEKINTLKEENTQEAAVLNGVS
Sequence of DHX9 (chain, as listed by the source): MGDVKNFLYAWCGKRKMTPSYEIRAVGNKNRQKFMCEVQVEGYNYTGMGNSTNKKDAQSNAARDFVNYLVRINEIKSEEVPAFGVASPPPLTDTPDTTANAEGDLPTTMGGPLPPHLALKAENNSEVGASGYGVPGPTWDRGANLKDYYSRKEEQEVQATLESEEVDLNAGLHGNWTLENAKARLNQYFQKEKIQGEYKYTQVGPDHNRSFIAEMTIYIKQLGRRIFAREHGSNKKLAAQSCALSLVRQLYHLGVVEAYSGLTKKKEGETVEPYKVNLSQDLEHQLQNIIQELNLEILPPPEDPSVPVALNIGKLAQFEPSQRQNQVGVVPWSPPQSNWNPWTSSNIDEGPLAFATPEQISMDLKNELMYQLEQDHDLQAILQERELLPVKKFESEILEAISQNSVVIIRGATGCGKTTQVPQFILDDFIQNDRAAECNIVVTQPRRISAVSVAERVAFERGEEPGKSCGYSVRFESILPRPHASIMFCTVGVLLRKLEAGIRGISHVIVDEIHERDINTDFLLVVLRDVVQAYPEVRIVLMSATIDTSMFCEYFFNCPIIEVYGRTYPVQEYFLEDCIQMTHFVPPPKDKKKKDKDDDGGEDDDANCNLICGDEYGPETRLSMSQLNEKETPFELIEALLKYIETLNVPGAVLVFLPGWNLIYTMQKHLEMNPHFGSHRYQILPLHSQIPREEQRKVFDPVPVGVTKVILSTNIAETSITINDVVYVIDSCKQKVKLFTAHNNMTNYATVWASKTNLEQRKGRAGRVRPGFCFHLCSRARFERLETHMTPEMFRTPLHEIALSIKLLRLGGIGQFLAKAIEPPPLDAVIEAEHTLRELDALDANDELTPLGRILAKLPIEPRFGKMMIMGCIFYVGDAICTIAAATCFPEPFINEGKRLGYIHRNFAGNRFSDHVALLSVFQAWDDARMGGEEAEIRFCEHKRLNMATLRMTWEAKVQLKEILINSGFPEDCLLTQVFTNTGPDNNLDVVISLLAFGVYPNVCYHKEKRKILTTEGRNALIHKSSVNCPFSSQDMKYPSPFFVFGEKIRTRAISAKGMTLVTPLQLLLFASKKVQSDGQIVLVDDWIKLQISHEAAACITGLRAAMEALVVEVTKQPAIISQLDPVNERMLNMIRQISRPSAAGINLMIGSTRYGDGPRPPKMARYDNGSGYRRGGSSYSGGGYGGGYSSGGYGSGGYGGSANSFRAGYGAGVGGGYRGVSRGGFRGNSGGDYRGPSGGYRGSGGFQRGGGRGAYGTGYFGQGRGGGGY

Substance | solubility in G1/S (log2) (HeLa Kyoto [1]) | melting temperature (HeLa Kyoto [2]; cell cycle stage: G1/S) | melting temperature (HeLa Kyoto [2]; cell cycle stage: mitosis) | solubility change mitosis (log2) (HeLa Kyoto [3]) | thermal stability score (HeLa Kyoto [4]; [5]) | thermal stability score (HeLa Kyoto [4]; cell cycle stage: mitosis)
CC2D1A | 0.298 | 49.7 °C | 49.6 °C | -0.0691 | 0.931 | 0.615
CENPF | -0.00455 | 48.9 °C | 49.7 °C | 0.109 | 2.12 | 0.418
CIAPIN1 | 0.471 | 50.7 °C | 51.7 °C | -0.0971 | 0.785 | 3.13
CLTC | -0.168 | 51.4 °C | 50.6 °C | -0.171 | -1.37 | 1.15
COL4A2 | 0.038 | 53.4 °C | 55.3 °C | 0.0703 | 0.58 | -0.541
CREBBP | -0.265 | 52 °C | 53.2 °C | 0.0153 | -0.935 | -0.841
DHX9 | -0.671 | 50.5 °C | 50.5 °C | 0.211 | 1.02 | 2.63
DOCK9 | -0.203 | 51.4 °C | 50.6 °C | -0.156 | -0.162 | -0.395
DSP | -0.687 | 46.7 °C | 46.6 °C | -0.0238 | -3.13 | 0.479
EIF4G3 | 0.109 | 49.1 °C | 49.4 °C | -0.178 | 0.306 | 2.44
EPPK1 | -2.27 | – | 51.3 °C | 0.311 | -7.26 | -8.82
ERH | -2.12 | 52.5 °C | 51.6 °C | 0.912 | -4.51 | -3.17
FASN | -0.0375 | 52.1 °C | 51.8 °C | -0.203 | -0.721 | 0.266
FLNA | -0.000309 | 50.2 °C | 50.3 °C | -0.105 | -0.0595 | 2.86
FRYL | -0.239 | 49.7 °C | 52.1 °C | -0.116 | -0.342 | 0.441
FXR1 | -0.859 | 50.3 °C | 50.8 °C | 0.215 | -2.47 | 2.23
GCHFR | 0.27 | 55 °C | 59.7 °C | 0.498 | -1.12 | -0.945
GOLGA4 | 0.348 | 48.5 °C | 49.2 °C | -0.133 | 0.946 | 2.53

Substance | solubility in G1/S (log2) (HeLa Kyoto [1]) | melting temperature (HeLa Kyoto [2]; cell cycle stage: G1/S) | melting temperature (HeLa Kyoto [2]; cell cycle stage: mitosis) | solubility change mitosis (log2) (HeLa Kyoto [3]) | thermal stability score (HeLa Kyoto [4]; [5]) | thermal stability score (HeLa Kyoto [4]; cell cycle stage: mitosis)
HDGF | 0.426 | 53.5 °C | 53.2 °C | 0.219 | -2.27 | -3.47
HERC2 | -0.443 | 51.3 °C | 50 °C | 0.00915 | 0.138 | 0.405
ILF2 | -0.141 | 54.6 °C | 53.3 °C | 0.0511 | -1.61 | -1.98
IQGAP3 | -0.395 | 47.8 °C | 48.1 °C | 0.191 | 0.51 | 1.12
IRF2BP2 | 0.391 | 53 °C | 52.6 °C | -0.0308 | -0.348 | -1.16
ITSN1 | 0.0319 | 49.5 °C | 50.2 °C | -0.0764 | -0.00548 | 0.39
JMJD1C | -0.105 | 50.2 °C | 50.7 °C | -0.0573 | 0.98 | 0.156
KIF13A | -0.0515 | 51.9 °C | 51.4 °C | -0.102 | -0.212 | -0.151
KIF14 | -0.297 | 49.1 °C | 45.5 °C | -0.0203 | -0.945 | -2.77
LACTB2 | 0.418 | 57.7 °C | 56.1 °C | -0.0335 | -2.61 | -0.348
LAMA5 | -0.331 | 53.3 °C | 54.1 °C | 0.0689 | 1.64 | 3.23
LARS | -0.189 | 49 °C | 49.1 °C | -0.14 | -0.182 | 2.83
LRBA | -0.115 | 51.2 °C | 51.2 °C | -0.148 | -0.555 | -0.768
LSM3 | 0.0123 | 55.4 °C | 53.4 °C | 0.115 | -1.12 | -1.32
LSM14A | 0.131 | 51.8 °C | 51.6 °C | -0.186 | -0.955 | -1.78
MAAAAAEQQQFYLLLGNLLSPDNVVRKQAEETYENIPGQSKITFLLQAIRNTTAAEEARQMAAVLLRRLLSSAFDEVYPALPSDVQTAIKSELLMIIQMETQSSMRKKVCDIAAELARNLIDEDGNNQWPEGLKFLFDSVSSQNVGLREAALHIFWNFPGIFGNQQQHYLDVIKRMLVQCMQDQEHPSIRTLSARATAAFILANEHNVALFKHFADLLPGFLQAVNDSCYQNDDSVLKSLVEIADTVPKYLRPHLEATLQLSLKLCGDTSLNNMQRQLALEVIVTLSETAAAMLRKHTNIVAQTIPQMLAMMVDLEEDEDWANADELEDDDFDSNAVAGESALDRMACGLGGKLVLPMIKEHIMQMLQNPDWKYRHAGLMALSAIGEGCHQQMEGILNEIVNFVLLFLQDPHPRVRYAACNAVGQMATDFAPGFQKKFHEKVIAALLQTMEDQGNQRVQAHAAAALINFTEDCPKSLLIPYLDNLVKHLHSIMVLKLQELIQKGTKLVLEQVVTSIASVADTAEEKFVPYYDLFMPSLKHIVENAVQKELRLLRGKTIECISLIGLAVGKEKFMQDASDVMQLLLKTQTDFNDMEDDDPQISYMISAWARMCKILGKEFQQYLPVVMGPLMKTASIKPEVALLDTQDMENMSDDDGWEFVNLGDQQSFGIKTAGLEEKSTACQMLVCYAKELKEGFVEYTEQVVKLMVPLLKFYFHDGVRVAAAESMPLLLECARVRGPEYLTQMWHFMCDALIKAIGTEPDSDVLSEIMHSFAKCIEVMGDGCLNNEHFEELGGILKAKLEEHFKNQELRQVKRQDEDYDEQVEESLQDEDDNDVYILTKVSDILHSIFSSYKEKVLPWFEQLLPLIVNLICPHRPWPDRQWGLCIFDDVIEHCSPASFKYAEYFLRPMLQYVCDNSPEVRQAAAYGLGVMAQYGGDNYRPFCTEALPLLVRVIQSADSKTKENVNATENCISAVGKIMKFKPDCVNVEEVLPHWLSWLPLHEDKEEAVQTFNYLCDLIESNHPIVLGPNNTNLPKIFSIIAEGEMHEAIKHEDPCAKRLANVVRQVQTSGGLWTECIAQLSPEQQAAIQELLNSA [IPO5] | 0.177 | 54 °C | 53.5 °C | -0.0935 | 1.46 | 1.41
MAAAAASLRGVVLGPRGAGLPGARARGLLCSARPGQLPLRTPQAVALSSKSGLSRGRKVMLSALGMLAAGGAGLAMALHSAVSASDLELHPPSYPWSHRGLLSSLDHTSIRRGFQVYKQVCASCHSMDFVAYRHLVGVCYTEDEAKELAAEVEVQDGPNEDGEMFMRPGKLFDYFPKPYPNSEAARAANNGALPPDLSYIVRARHGGEDYVFSLLTGYCEPPTGVSLREGLYFNPYFPGQAIAMAPPIYTDVLEFDDGTPATMSQIAKDVCTFLRWASEPEHDHRKRMGLKMLMMMALLVPLVYTIKRHKWSVLKSRKLAYRPPK [CYC1] | 0.869 | 54.5 °C | 53.5 °C | -0.106 | -5.79 | -6.58
MAAAAECDVVMAATEPELLDDQEAKREAETFKEQGNAYYAKKDYNEAYNYYTKAIDMCPKNASYYGNRAATLMMLGRFREALGDAQQSVRLDDSFVRGHLREGKCHLSLGNAMAACRSFQRALELDHKNAQAQQEFKNANAVMEYEKIAETDFEKRDFRKVVFCMDRALEFAPACHRFKILKAECLAMLGRYPEAQSVASDILRMDSTNADALYVRGLCLYYEDCIEKAVQFFVQALRMAPDHEKACIACRNAKALKAKKEDGNKAFKEGNYKLAYELYTEALGIDPNNIKTNAKLYCNRGTVNSKLRKLDDAIEDCTNAVKLDDTYIKAYLRRAQCYMDTEQYEEAVRDYEKVYQTEKTKEHKQLLKNAQLELKKSKRKDYYKILGVDKNASEDEIKKAYRKRALMHHPDRHSGASAEVQKEEEKKFKEVGEAFTILSDPKKKTRYDSGQDLDEEGMNMGDFDPNNIFKAFFGGPGGFSFEASGPGNFFFQFG [DNAJC7] | 0.556 | 48.8 °C | 49.3 °C | -0.0134 | 0.609 | 1.11
